Experimental data reported in PMC5389812, “Rv3634c from Mycobacterium tuberculosis H37Rv encodes an enzyme with UDP-Gal/Glc and UDP-GalNAc 4-epimerase activities” (PLoS ONE, 2017).

Molecular target: the molecule itself
Assay: SEC; Superdex 200 16/600 GL column, FPLC buffer (20 mM Tris pH 8.0, 100 mM NaCl); calibrated with conalbumin, ovalbumin, carbonic anhydrase, ribonuclease A and aprotinin; molecular weight from Kav

B1: His-tagged Rv3634c (H3634), wild type, UDP-Gal/Glc and UDP-GalNAc 4-epimerase from Mycobacterium tuberculosis H37Rv (enzyme)
chain: MRALVTGAAGFIGSTLVDRLLADGHSVVGLDNFATGRATNLEHLADNSAHVFVEADIVTADLHAILEQHRPEVVFHLAAQIDVRRSVADPQFDAAVNVIGTVRLAEAARQTGVRKIVHTSSGGSIYGTPPEYPTPETAPTDPASPYAAGKVAGEIYLNTFRHLYGLDCSHIAPANVYGPRQDPHGEAGVVAIFAQALLSGKPTRVFGDGTNTRDYVFVDDVVDAFVRVSADVGGGLRFNIGTGKETSDRQLHSAVAAAVGGPDDPEFHPPRLGDLKRSCLDIGLAERVLGWRPQIELADGVRRTVEYFRHKHTD
notes: the protein is called H3634 (His-tagged Rv3634c) in the size exclusion experiment; also called WT; WT H3634; not shown: His6, N-terminal, kept
In the case of B1, the “stoichiometry N” value is reported as 2.
